Test results published in patent US20250289873A1 (published 2025).
Residue numbers refer to the chain shown, from its start. Blank lines part the entries; values can stand above or below the binder they belong to.

Target: hCFHR4
Experiment: SPR kinetics

Kd: 0.317 nM
B1: ATX-P-583 (antibody, V domains shown)
VH: QVQLVQSGAEVKKPGASVKVSCKASGYTFTTYGISWVRQAPGQGLEWMGWISAYSGNTHYAQSLQDRVTMTTDTSTSTAYMEVRSLRSDDTAVYYCAKDEGYCSSTGCLNLFDPWGQGTLVTVSS
VL: DIQMTQSPSSLSASVGDRVTITCRASQNIGSYLNWYQQKPGNAPKLLIYATSTLQSGVPSRFSGSGSGTDFTLIISSLHPEDFTVYYCQQSFIIPFTFGPGTKVDIKR

Kd: 4.98 nM
B2: ATX-P-609 (antibody, V domains shown)
VH: QVQLQESGPGLVKPSGTLSLTCAVSGGSISSSNWWSWVRQPPGKGLEWIGEIYHSGSTNYNPSLKSRVTISVDKSKNQFSLKLRSVTAADTAVYYCARDQLSSGPTDAFDIWGQGTMVTVSS
VL: EIVMTQSPATLSVSPGERATLSCRASQSVSSNLAWYQQKPGQAPRLLIYGASTRATGIPVRFSGSGSGTQFTLTISSLQSEDFAVYYCQQYDNWRTFGQGTKLEIKR

Kd: 0.347 nM
B3: ATX-P-608 (antibody, V domains shown)
VH: QVQLQESGPGLVKPSGTLSLTCAVSGGSISSSNWWSWVRQSPGKGLEWIGEIYHTGSTNKKPSLKSRVIISVDKSKNQFSLKLISVNAADTAIYYCARDREGGTTEAFDIWGQGTMVTVSS
VL: B2 VL with K102R

Kd: 18.2 nM
B4: ATX-P-601 (antibody, V domains shown)
VH: QVQLVQSGAEVKKPGASVKVSCKASGYTFTSYYMHWVRQAPGQGLEWMGIINPSGGSTNYAQKFQGRLTMTRDTSTNTVYMELSSLRSEDTAVYYCATDQSGGMDVWGKGTTVTVSS
VL: DIQMTQSPSSLSASVGDRVTITCRASQSINIYLNWYQQKPEKDPKLLIYAASSLQSGVPSRFSGSGSGTDFTLTISNLQPEDFATYYCQQSYSTPITFGQGTRLEIKR

Kd: 1.62 nM
B5: ATX-P-568 (antibody, V domains shown)
VH: EVQLVESGGGLVQPGGSLRLSCAASGFPFSSYVMSWVRQAPGKGLEWVSVISVSGGSTFYADSVRGRFTISRDNSKNTLYLQVYSLRAEDTAVYYCAKDGLAVAGFDHWGQGTLVTVSS
VL: DIQMTQSPSTLSASVGDRVTITCRASQSISTWLAWYQQKPGKAPKLLIHKASGLESGVPSRFSGSGSGTEFTLTISSLQPDDFATYYCQQYNSFSLIFGGGTRVEIKR

Kd: 5.9 nM
B6: ATX-P-574 (antibody, V domains shown)
VH: EVQLVESGGGLVQRGGSLRLSCVASGFTFSSYAMSWVRQAPGKGLEWVSVISGSGGTTYYADSVKGRFTISRDDSKKTLYLQMNSLRAEDTAVYYCAKRGDYGDYMDVWGKGTTVTVSS
VL: DIQMTQSPSSVSASVGDRVTITCRASQGITTWLAWYQQKPGKAPKLLIFGASSLESGVPSRFSGSGSGTDFTLTISSLQPEDFATYYCQQANSFPWTFGQGTKVEIKR

Kd: 31.9 nM
B7: ATX-P-561 (antibody, V domains shown)
VH: QVQLQQSGPGLVKPSQTLSLTCAISGDSVSSNSAAWNWIRQSPSRGLEWLGRTYYRSKWYNGYAVSMKSRITINPDTSKNQFSLQLNSVTPEDTAMYYCAREGVGATTGFDYWGQGTLVTVSS
VL: B6 VL with V11L, T30S, T31S, A34T, F49Y, G50A, E55Q, S56G, W96P

Kd: 0.487 nM
B8: ATX-P-562 (antibody, V domains shown)
VH: QVQLQQSGPGLVKSSQTLSLTCAISGDTVSSNSAAWNWIRQSPSRGLEWLGRTFYRSRWSAAYAASVSSRITINPDTSKNQFSLQLTSVTPADTAVYYCAREGVGSSTGFDYWGQGTLVTVSS
VL: B6 VL with V15I, Q27K, T30S, T31I, L46V, F49S, G50A, E55Q, V58A, W96P

Kd: 23 nM
B9: ATX-P-573 (antibody, V domains shown)
VH: QVQLQQSGPGLVKPSQTLSLTCAISGDSVSSNSAAWNWIRQSPSRGLEWLGRTYYRSKLYSDYAVSVKSRITINPDTSRNQFSLQLNSVTPEDTAVYYCAREGGYTYGYDYWGQGTLVTVSS
VL: B6 VL with T30S, T31S, L46V, F49Y, G50A, E55Q, W96P, Q100P, E105D

Kd: 0.9 nM
B10: ATX-P-576 (antibody, V domains shown)
VH: EVQLVESGGGLVQPGRSLRLSCTASGFTFDDYEMHWVRQAPGKGLEWVSDISRNSGRIGYADSVKGRFTISRDNAKNSLYLQMNSLRAEDTALYYCAKDIWGSGYFDYWGQGILVTVSS
VL: B6 VL with A25T, T30R, T31N, F49Y, G50A, E55Q, S56T, V58G, W96Y, V104L

Kd: 9.65 nM
B11: ATX-P-581 (antibody, V domains shown)
VH: B9 VH with S33N, L59W, S61N, D62A, T72I, T106I, Y109L, Y111Q
VL: B6 VL with I29V, T30N, T31N, F49H, G50A, E55L, S76T, W96I, K103R, V104L

Kd: 2.12 nM
B12: ATX-P-560 (antibody, V domains shown)
VH: QVQLQQSGPGLVKPSQTLSLTCAISGDSVSSNTAAWNWIRQSPSRGLEWLGRTYYRSKWYNDYAVSVKSRITINPDTSKNQFSLQLSSVTPQDTAIYYCASDNWNNGGPGFDPWGQGTLVTVSS
VL: B6 VL with A13T, T30S, T31S, F49S, G50A, E55Q, S77T, T85S, W96P, K103R

Kd: 7.97 nM
B13: ATX-P-607 (antibody, V domains shown)
VH: QVQLVQSGAEVKKPGASVKVSCKASGYTFTSYYMHWVRQAPGQGLEWMGIINPSGGSTSYAQKFQGRVTMTRDTSTNTVYMELSSLRSEDTAVYYCARDPEYSSAFDIWGQGTMVTVSS
VL: DIQMTQSPSSLSASVGDRGTITCRASQSIRSYLNWYQQKPGKAPKLLIYAASSLQSGVPSRFSGSGSGTDFTLTISSLQPEDFATYYCQQSYRTPVTFGPGTKVDIKR

Kd: 27.4 nM
B14: ATX-P-571 (antibody, V domains shown)
VH: QVQLQESGPGLVKPSGTLSLTCAVSGGSISSRNWWSWVRQPPGKGLEWIGEIYHGGTTNYNPSLKSRVTISVDKSKNQFSLKLSSVTAADTAVYYCARGGLRLGELSPNAFDIWGQGTMVTVSS
VL: DIQMTQSPSSLSASVGDRVTITCRASQSISSYLNWYQQKPGKAPKVLIYAASSLQSGIPSRFSGSGSGTDFTLTISSLQPEDFATYYCQETYSVPLTFGGGTKVEIKR

Kd: 0.168 nM
B15: ATX-P-597 (antibody, V domains shown)
VH: QVQLVQSGAEVKKPGASVKVSCKASGYTFTNYYMQWVRQAPGQGLEWLGIIDPSGGSTTYAQKFQGRVTMTRDTSTSTVHMELRSLRSEDTAVYYCARDEGTDRPGWGYWGQGTLVTVSS
VL: B13 VL with V15I, G19V, R30S, N34D, Q38R, P40S, R93S, V96L, P100G

Kd: 10.5 nM
B16: ATX-P-570 (antibody, V domains shown)
VH: QVQLQESGPGLVKPSETMSLTCTVSGGSFTGYYWSWIRQPPGKGLEWIGYVHYSGGTKSNPSLKSRVTISVDTSKNQFSLKLSSVTAADTAVYYCARERYEWNSYFDYWGQGTLVTVSS
VL: not shown

Kd: 33 nM
B17: ATX-P-602 (antibody, V domains shown)
VH: not shown
VL: EIVLTQSPGTLSLSPGERATLSCRASQSVSSSYLAWYQQKPGQAPRLLIYGASSRATGIPDRFSGSGSGTQFTLTISSLQSEDFAVYYCQQYGSSPWTFGQGTKVDIKR

Kd: 0.222 nM
B18: ATX-P-604 (antibody, V domains shown)
VH: QVQLQQSGPGLVKPTQTLSLTCAISGDSVSSNSAAWNWIRQSPSRGLEWLGRTYYRSKWFNGYAVSVKSRITINPDASKNQFSLHLKSVTDEDTAVYYCATDRGELLHWYFDLWGRGTLVTVSS
VL: EIVLTQSPDTLSLSPGERATLSCRASQTIRSSYLAWYQLKPGQAPRLLIYGASSRATGIPDRFSGSGSGTDFTLSISRLEPEDFAVYYCQQYGRSIIFGGGTKVEIKR

Kd: 6.87 nM
B19: ATX-P-588 (antibody, V domains shown)
VH: EVQLVESGGGLVQPGRSLRLSCAASGFTFEDYAMHWVRQAPGKGLEWVSGISWNSGSIGYADSVKGRFTISRDNAKKSLYLQMNSLRAEDTALYYCTKDRDDGYNYAGVFDYWGQGTLVTVSS
VL: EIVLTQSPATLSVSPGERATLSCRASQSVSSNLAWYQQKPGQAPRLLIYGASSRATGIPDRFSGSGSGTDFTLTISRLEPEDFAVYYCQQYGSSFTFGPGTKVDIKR

Kd: 1.5 nM
B20: ATX-P-572 (antibody, V domains shown)
VH: QVQLQQSGPGLVKPSQTLSLTCAISGDSVSSNSAAWNWIRQSPSRGLEWLGMTYYRSKWYSVFAVSVKSRITINTDTSKNQFSLQLNSVTPEDTAVYYCAREGGIVGATPFDYWGQGTLVTVSS
VL: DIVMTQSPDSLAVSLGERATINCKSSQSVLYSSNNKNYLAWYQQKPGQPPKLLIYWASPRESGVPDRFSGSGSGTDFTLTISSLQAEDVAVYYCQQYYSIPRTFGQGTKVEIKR

Kd: 25 nM
B21: ATX-P-578 (antibody, V domains shown)
VH: EVQLVESGGGLVQPGGSLRLSCAASGFTFSRYSMNWVRQAPGKGLEWVSYISSSSSTIFHADSVKGRFTISRDNAKNSLYLQMNSLRDEDTAVYYCARGNWNYYYMDVWGKGTTVTVSS
VL: DIQMTQSPSTLSASVGDRVTISCRASQSVNSWLAWYQQKPGKAPKLLIYKASNLEGGVPSSFSGSGSGTEFTLTISSLQPDDFATYYCQQYDTSWTFGQGTKVEIKR

Kd: 6.9 nM
B22: ATX-P-565 (antibody, V domains shown)
VH: QVQLVESGGGVVQPGRSLRLSCAASGFTFNTYGIHWVRQAPGKGLEWVAVIWHDGSSKNYVDSVTGRFTISRDNSKNTVYLQMNSLRAEDTAVYYCARRGNWNYGFYYYYMDVWGKGTTVTVSS
VL: DIVMTQSPLSLPVTPGEPASISCRSSQRLLHSSGYNYLDWYLQKPGQSPQLLIYLGSSRASGVPDRFSGSGSGTDFTLKISRVEAEDVGVYYCMQGLQTPPTFGQGTKVEIKR

Kd: 1.46 nM
B23: ATX-P-579 (antibody, V domains shown)
VH: QVQLQESGPGLVKPSGTLSLTCAVSGASISTSNWWTWVRQPPGKGLEWIGEIYHDGSTNYSPSLQSRVTISVDKSKNQFSLTLTSVTAADTAIYYCGDFYIDVWGNGTTVTVSS
VL: DIQMTQSPSSLSASVGDRVTITCRASQGIRKDLGWYQQKPGKAPKRLIYTASTLQSGVPSRFSGSGSGTEFTLTISSLQPEDFATYYCLQYNNYPFTFGPGTKVDIKR

Kd: 31.9 nM
B24: ATX-P-580 (antibody, V domains shown)
VH: QVQLQESGPGLVKPSGTLSLTCAVSGGSISTSDWWTWVRQPPGKGLEWIGEIYHSGSTNYNPSLKSRVTISVDKSKNQFSLKLSSVTAADTAVYYCADWYFDLWGRGTLVTVSS
VL: B23 VL with K31N, T50A, T53S, T74A, Q90H, Y91F, N93S
